Laboratory results: the supplement of paper PMC9170038

Tested on: MS2 coat protein
Experiment: apparent KD of MS2 coat protein; higher = weaker reporter binding
Conditions: Eterna round: R107
In short: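 Apparent KD per design is the median of normalised cluster binding-curve fits. Designed RNA switches transcribed on-chip from Illumina sequencing clusters were titrated with SNAP-549-labelled MS2 coat protein in twofold steps from 0.7 or 1.5 nM to 3 µM, with 0.8–1.5 h down to 10–20 min per step. Buffer: 100 mM Tris-HCl pH 7.5, 80 mM KCl, 4 mM MgCl2, without or with constant ligand.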

[1] = input ligand: theophylline 20 uM
[2] = input ligand: theophylline 2 mM
[3] = input ligand: tryptophan 2.4 mM

Sequence | apparent KD of MS2 coat protein (input ligand: arginine 13.2 mM) [nM] | apparent KD of MS2 coat protein (input ligand: none) [nM] | apparent KD of MS2 coat protein [1] [nM] | apparent KD of MS2 coat protein [2] [nM] | apparent KD of MS2 coat protein [3] [nM]
UGUAUGUGAUCUGAUACCAGCUUUGAUAACCUGAGGAUCACCCUGGUAAAGGCGAAAGCCGGCCCUUGGCAGCAGAUCGCAUACU | 47.3 | 58.5 | 56.1 | 24.6 | 59.7
UAUCCACAUGAGGAUCACCCAUGUUAGGAAGGAGCGGUGAGUGCACCAGGUAGGUCGCCUAGCUGAGGACUGUCGGUGGAUUCGU [Exclusion - Arginine A (Freestyle 20)] | 39.7 | 88 | 67.3 | 57.1 | 47.7
GUAUGGAAACAUACUUGGGUAUCAUGAGAUACCAGUACAGAAAUGUACCCUUGGCAGCUCAAGCAUACAUGAGGAUCACCCAUGU [Ex Theophylline A 8] | 22.5 |  | 22.5 |  | 15.4
CUUGAGACAUGAGGAUCACCCAUGUCCGAAGGAGCGUGCGAAAGCACAGGUAGGUCGCGGACGUGAGGAUCUCCCAUGUGAGCGA [#25 Exclusion - Arginine A] | 14.3 | 35.9 | 28.2 | 25.7 | 17.8
UCGGACAUGAGGAUCACCCAUGUAAAUCCUCGAGGACCGGUACGGCCGCCACUCGAACGAGUGGCGCGCGAGUGCGCACUCGCGC [aFa] | 22.2 | 33.2 | 57.9 | 35.8 | 26.6
ACAUUGCGCUCGGCCGCCACUGCCUUAUGAUUAUAAGGAUUAAUGAACAUGAGGAUCACCCAUGUCAGGACCGGGAGCGAACCAU [SSTryp B #6] | 11.4 |  | 16 | 14.1 | 
GGUGGCGGGACUGAUACCAGCCACCACCGAUAGACCACAUGAGGAUCACCCAUGUUGGGUGGCCCUUGGCAGCAGUCUUGCGUCG [#1 Same State - Theophylline B Attempt #16 (HarryS)] | 35.9 | 149 | 92.9 | 21 | 323
CUAUGGAUAAGAAGGAGCGUCGAAAAUGGGUAAACAUGAGGAUCACCCAUGUAAAGGGAACGACAGGUAGGUCGCUUAUUUAUAG [AstromonsSSArgB#7] | 107 | 179 | 190 | 213 | 192
AGCAGAUCCCAGCGAAAGCUGGGAUCUGCACGAGGACCGGUACGGCCGCCACUCGAGGACAUGAGGAUCACCCAUGUACCGGUCA [Glorfindel] | 174 | 75.8 | 64.6 | 238 | 78.3
GGUGGCGUGACGGAUACCAGCCACCGCCGCAAGGCCACAUGAGGAUCACCCAUGUUGGGUGGCCCUUGGCAGCUGUCGUGCGGCG [#1 Same State - Theophylline B Attempt #21 (HarryS)] | 121 |  | 464 |  | 378
AAUUCAAGGUUCUUGAUGUAUUAUAUAUUUCGAGGACCGGUACGGCCGCCACUCGUUAAUUACAUGAGGAUCACCCAUGUUAGCU [JR_ExcTryptoA_Sub010] | 14.2 |  | 16 | 17.2 | 
AGUGCUACGUGUAAUCAAAGAGAACCAGAUACCAGAUUAGCAUACAUCCCUUGGCAGCUGCAUACAUGAGGAUCACCCAUGUCAG [theeternabot_exclusion_MS2_Theo_A_31] | 26.5 |  | 38.4 |  | 31.8
AUUAUCAUGGUCAUAUAUAUUUCGUCAGAUACCAGACUAGAUAUAGUCCCUUGGCAGCUGUUACAUGAGGAUCACCCAUGUUAUU [JR_ExcTheophyA_Sub017] | 32.2 |  | 80.3 |  | 96.3
ACCUGUACGAAAAGUGCAGGACACGGAAUACGAGGACCGGUACGGCCGCCACUCGGAAAACCUGAGGAUCACCCUGGUAACCGUG [TrypAS 11 #AlternativeMS2 #Zipper #StaticStem] | 21.6 | 16.3 | 22.3 | 25 | 22.1
